The target in experiment [1] is T1, PSD-95 PDZ3cα (residues R309-S422) (Homo sapiens, UniProt P78352). The experiment in a line: SPR binding of peptides to immobilized PDZ3cα. Background: Surface plasmon resonance follows binding to a sensor surface in real time, without labels.
Experiment [2] addresses T1, PSD-95 PDZ3cα (residues R309-S422). The experiment in a line: SPR.
The subject of experiment [3] is AS mouse model. The experiment in a line: AS mouse model / animal studies. As to conditions: data to be reported elsewhere. The experiment is classed as in vivo.
The target in experiment [4] is PSD-95 PDZ3cα protein (residues R309-S422) (UniProt P78352 309-422). Put plainly: SPR.
Chain of PSD-95 PDZ3cα protein (residues R309-S422) (P78352 309-422): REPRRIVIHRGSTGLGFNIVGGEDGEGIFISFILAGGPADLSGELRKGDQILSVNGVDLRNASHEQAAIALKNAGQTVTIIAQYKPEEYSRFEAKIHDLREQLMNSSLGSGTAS

Broadly, the Kd is a measure of binding affinity in units of concentration. High values mean a looser complex, low ones a tighter complex. In general, koff refers to the first-order rate constant of dissociation. Lower therefore signals a long-lived complex. By kon is commonly meant the second-order rate constant of association. The low end stands for slow association, the high end for fast association.

Non-standard residues stand in square brackets, D forms with d. No end group written: not given here. Trp(5-OH) = N[C@@H](Cc1c[nH]c2ccc(O)cc12)C(=O)O; Phe(4-NH2) = Nc1ccc(C[C@H](N)C(=O)O)cc1

T1 sequence (P78352 309-422): as above

In the case of RRRRRRGSFPPWLQQTRV [V8L], the Kd in experiment [1] worked out at 0.0584 µM.

For SYNGAP peptide V8I, in experiment [2], the koff turned out to be 0.00294 s⁻¹.

In turn, `CC(C)[C@H](NC(=O)[C@H](CCCNC(=N)N)NC(=O)[C@@H](NC(=O)[C@H](CCC(N)=O)NC(=O)[C@H](CCC(N)=O)NC(=O)[C@@H](NC(=O)[C@H](Cc1c[nH]c2ccccc12)NC(=O)[C@@H]1CCCN1C(=O)[C@@H]1CCCN1C(=O)[C@H](Cc1ccccc1)NC(=O)[C@@H](CO)NC(=O)CNC(=O)[C@H](CCCNC(=N)N)NC(=O)[C@H](CCCNC(=N)N)NC(=O)[C@H](CCCNC(=N)N)NC(=O)[C@H](CCCNC(=N)N)NC(=O)[C@H](CCCNC(=N)N)NC(=O)[C@@H](N)CCCNC(=N)N)C(C)C)[C@@H](C)O)C(=O)O` [D-Ser3] came in with a Kd in experiment [1] of 0.0078 µM. As for `CC(C)[C@H](NC(=O)[C@H](CCCNC(=N)N)NC(=O)[C@@H](NC(=O)[C@H](CCC(N)=O)NC(=O)[C@@H](CCC(N)=O)NC(=O)[C@@H](NC(=O)[C@H](Cc1c[nH]c2ccccc12)NC(=O)[C@@H]1CCCN1C(=O)[C@@H]1CCCN1C(=O)[C@H](Cc1ccccc1)NC(=O)[C@H](CO)NC(=O)CNC(=O)[C@H](CCCNC(=N)N)NC(=O)[C@H](CCCNC(=N)N)NC(=O)[C@H](CCCNC(=N)N)NC(=O)[C@H](CCCNC(=N)N)NC(=O)[C@H](CCCNC(=N)N)NC(=O)[C@@H](N)CCCNC(=N)N)C(C)C)[C@@H](C)O)C(=O)O` [D-Gln9], in experiment [1], the Kd amounted to 0.0573 µM. Regarding SYNGAP peptide V8L, the koff in experiment [2] came out at 0.00381 s⁻¹. As for RRRRRRGSFPPWIQQTRV [V8I], the affinity in experiment [1], expressed as Kd, was 0.101 µM. This counts as sub-micromolar. On to `CC(C)[C@H](NC(=O)[C@H](CCCNC(=N)N)NC(=O)[C@@H](NC(=O)[C@H](CCC(N)=O)NC(=O)[C@H](CCC(N)=O)NC(=O)[C@@H](NC(=O)[C@H](Cc1c[nH]c2ccccc12)NC(=O)[C@@H]1CCCN1C(=O)[C@H]1CCCN1C(=O)[C@H](Cc1ccccc1)NC(=O)[C@H](CO)NC(=O)CNC(=O)[C@H](CCCNC(=N)N)NC(=O)[C@H](CCCNC(=N)N)NC(=O)[C@H](CCCNC(=N)N)NC(=O)[C@H](CCCNC(=N)N)NC(=O)[C@H](CCCNC(=N)N)NC(=O)[C@@H](N)CCCNC(=N)N)C(C)C)[C@@H](C)O)C(=O)O` [D-Pro4], for which the Kd in experiment [1] worked out at 0.0061 µM. In experiment [2], SYNGAP peptide F4H returned a koff of 0.0261 s⁻¹ and a kon of 216000 M⁻¹ s⁻¹. In turn, `CC(C)[C@H](NC(=O)[C@H](CCCNC(=N)N)NC(=O)[C@@H](NC(=O)[C@H](CCC(N)=O)NC(=O)[C@H](CCC(N)=O)NC(=O)[C@@H](NC(=O)[C@H](Cc1c[nH]c2ccccc12)NC(=O)[C@H]1CCCN1C(=O)[C@@H]1CCCN1C(=O)[C@H](Cc1ccccc1)NC(=O)[C@H](CO)NC(=O)CNC(=O)[C@H](CCCNC(=N)N)NC(=O)[C@H](CCCNC(=N)N)NC(=O)[C@H](CCCNC(=N)N)NC(=O)[C@H](CCCNC(=N)N)NC(=O)[C@H](CCCNC(=N)N)NC(=O)[C@@H](N)CCCNC(=N)N)C(C)C)[C@@H](C)O)C(=O)O` [D-Pro5] came in with a Kd in experiment [1] of 0.0243 µM. RRRRRRGSHPPWVQQTRV [F4H]: in experiment [1], the Kd was 0.121 µM. Same read-out and setting: the result for `CC(C)[C@H](NC(=O)[C@H](CCCNC(=N)N)NC(=O)[C@@H](NC(=O)[C@H](CCC(N)=O)NC(=O)[C@H](CCC(N)=O)NC(=O)[C@H](NC(=O)[C@H](Cc1c[nH]c2ccccc12)NC(=O)[C@@H]1CCCN1C(=O)[C@@H]1CCCN1C(=O)[C@H](Cc1ccccc1)NC(=O)[C@H](CO)NC(=O)CNC(=O)[C@H](CCCNC(=N)N)NC(=O)[C@H](CCCNC(=N)N)NC(=O)[C@H](CCCNC(=N)N)NC(=O)[C@H](CCCNC(=N)N)NC(=O)[C@H](CCCNC(=N)N)NC(=O)[C@@H](N)CCCNC(=N)N)C(C)C)[C@@H](C)O)C(=O)O` [D-Val8] reads 0.0209 µM; that for “GSFPPWVQ [aC binder, reference compound]”, 11.1 µM. Regarding `CC(C)[C@H](NC(=O)[C@H](CCCNC(=N)N)NC(=O)[C@@H](NC(=O)[C@H](CCC(N)=O)NC(=O)[C@H](CCC(N)=O)NC(=O)[C@@H](NC(=O)[C@H](Cc1c[nH]c2ccccc12)NC(=O)[C@@H]1CCCN1C(=O)[C@@H]1CCCN1C(=O)[C@H](Cc1ccccc1)NC(=O)[C@H](CO)NC(=O)CNC(=O)[C@H](CS)NC(=O)[C@H](CS)NC(=O)[C@H](CCCNC(=N)N)NC(=O)[C@H](CCCNC(=N)N)NC(=O)[C@H](CCCNC(=N)N)NC(=O)[C@H](CCCNC(=N)N)NC(=O)[C@H](CCCNC(=N)N)NC(=O)[C@H](CCCNC(=N)N)NC(=O)[C@@H](N)CCCNC(=N)N)C(C)C)[C@@H](C)O)C(=O)O` [SYNGAP], the “effect in AS mouse model / animal studies” value in experiment [3] is “did not have the same beneficial effects as Syn3”. On to RRRRRRGSFPP[Trp(5-OH)]VQQTRV [SYNGAP peptide W7-OHW], for which, in experiment [4], the koff came out at 0.0106 s⁻¹ and the kon worked out at 24000 M⁻¹ s⁻¹. In experiment [4], RRRRRRGSFP[dP]WVQQTRV [SYNGAP peptide D-Pro5] yielded a koff of 0.0444 s⁻¹ and a kon of 1.83e+06 M⁻¹ s⁻¹. In experiment [4], RRRRRRGSFPPW[dV]QQTRV [SYNGAP peptide D-Val8] came in with a koff of 0.0459 s⁻¹ and a kon of 2.19e+06 M⁻¹ s⁻¹.

B1: D-Syn3 (peptide)
chain 1: RRRRRRRC
chain 2: CGSFPPWVQKTEV
modifications: cysteine pairing not given here; also: D- prefix in name, meaning not given here
In experiment [4], B1 displayed a koff of 0.0125 s⁻¹ and an association rate constant (kon) of 458000 M⁻¹ s⁻¹. Take GSFPPWVQ [aC binder peptide]: in experiment [4], the koff was 0.00592 s⁻¹ and the on-rate constant (kon) was found to be 1000 M⁻¹ s⁻¹. Taken in the same sequence, the figures for RRRRRRGSF[dP]PWVQQTRV [SYNGAP peptide D-Pro4] were 0.0116 s⁻¹ and 1.88e+06 M⁻¹ s⁻¹.

In experiment [4], CGSFPPWVKKTEV (not fully specified) [Syn3*] yielded a koff of 0.0287 s⁻¹ and a kon of 439000 M⁻¹ s⁻¹.

B2: CN2097 (peptide)
chain 1: RRRRRRRC
chain 2: CKNYKKTEV
In experiment [4], B2 registered a koff of 0.00109 s⁻¹ and a kon of 6000 M⁻¹ s⁻¹.

Regarding RRRRRRG[dS]FPPWVQQTRV [SYNGAP peptide D-Ser3], in experiment [4], the off-rate (koff) turned out to be 0.00493 s⁻¹ and the kon was 633000 M⁻¹ s⁻¹. On to RRRRRRGSFPPWV[dQ]QTRV [SYNGAP peptide D-Gln9], for which, in experiment [4], the koff stood at 0.0182 s⁻¹ and the kon was found to be 317000 M⁻¹ s⁻¹.

As to RRRRRRGS[Phe(4-NH2)]PPWVQQTRV [SYNGAP peptide F4-NH2F], in experiment [4], the koff was 0.0104 s⁻¹ and the kon was 153000 M⁻¹ s⁻¹.

Source of the values: article PMC10441386 (bioRxiv, 2023).
